{
  "source": "patent CN116199772A",
  "about": "(YIDAO BIOTECHNOLOGY SUZHOU CO LTD, dated 2023)",
  "test_in_all_cases": "indirect ELISA, cross-reaction on 9 HPV type antigens",
  "key": {"[1]": {"target": "T1, HPV18亚型抗原 (Human papillomavirus type 18, UniProt P06794 62-568)", "T1 construct": "Called only 'HPV18 antigen'", "T1 sequence": "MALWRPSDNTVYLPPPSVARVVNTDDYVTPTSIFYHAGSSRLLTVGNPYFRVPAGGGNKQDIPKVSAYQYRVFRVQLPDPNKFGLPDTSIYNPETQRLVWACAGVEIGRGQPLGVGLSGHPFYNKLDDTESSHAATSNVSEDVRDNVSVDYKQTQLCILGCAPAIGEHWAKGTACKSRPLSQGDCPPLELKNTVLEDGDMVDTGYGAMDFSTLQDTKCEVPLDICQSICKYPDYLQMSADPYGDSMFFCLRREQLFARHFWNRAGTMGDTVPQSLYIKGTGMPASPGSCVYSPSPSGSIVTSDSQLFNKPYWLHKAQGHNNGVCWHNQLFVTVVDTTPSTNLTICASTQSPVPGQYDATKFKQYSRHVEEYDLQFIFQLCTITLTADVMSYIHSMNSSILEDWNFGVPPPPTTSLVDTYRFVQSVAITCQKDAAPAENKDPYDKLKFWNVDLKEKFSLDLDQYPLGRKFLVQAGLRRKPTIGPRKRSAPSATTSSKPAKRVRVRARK"}, "[2]": {"target": "T2, HPV 58亚型抗原 (Human papillomavirus type 58, UniProt P26535 27-524)", "T2 construct": "Called only 'HPV 58 antigen'", "T2 sequence": "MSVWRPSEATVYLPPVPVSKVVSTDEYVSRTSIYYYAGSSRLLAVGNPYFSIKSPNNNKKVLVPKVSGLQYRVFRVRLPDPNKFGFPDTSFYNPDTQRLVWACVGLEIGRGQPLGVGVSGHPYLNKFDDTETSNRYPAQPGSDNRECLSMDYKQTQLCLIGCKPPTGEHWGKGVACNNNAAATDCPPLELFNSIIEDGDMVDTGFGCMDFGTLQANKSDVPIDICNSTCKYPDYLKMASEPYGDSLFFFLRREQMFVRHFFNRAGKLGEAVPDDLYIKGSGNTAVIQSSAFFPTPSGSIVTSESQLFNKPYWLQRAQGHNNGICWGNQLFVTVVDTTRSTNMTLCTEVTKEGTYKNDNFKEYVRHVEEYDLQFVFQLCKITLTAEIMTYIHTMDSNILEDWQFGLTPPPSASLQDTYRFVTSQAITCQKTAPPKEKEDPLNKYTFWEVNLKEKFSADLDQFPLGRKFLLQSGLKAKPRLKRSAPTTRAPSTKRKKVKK"}, "[3]": {"target": "T3, HPV 45亚型抗原 (Human papillomavirus type 45, UniProt P36741 30-539)", "T3 construct": "Called only 'HPV 45 antigen'", "T3 sequence": "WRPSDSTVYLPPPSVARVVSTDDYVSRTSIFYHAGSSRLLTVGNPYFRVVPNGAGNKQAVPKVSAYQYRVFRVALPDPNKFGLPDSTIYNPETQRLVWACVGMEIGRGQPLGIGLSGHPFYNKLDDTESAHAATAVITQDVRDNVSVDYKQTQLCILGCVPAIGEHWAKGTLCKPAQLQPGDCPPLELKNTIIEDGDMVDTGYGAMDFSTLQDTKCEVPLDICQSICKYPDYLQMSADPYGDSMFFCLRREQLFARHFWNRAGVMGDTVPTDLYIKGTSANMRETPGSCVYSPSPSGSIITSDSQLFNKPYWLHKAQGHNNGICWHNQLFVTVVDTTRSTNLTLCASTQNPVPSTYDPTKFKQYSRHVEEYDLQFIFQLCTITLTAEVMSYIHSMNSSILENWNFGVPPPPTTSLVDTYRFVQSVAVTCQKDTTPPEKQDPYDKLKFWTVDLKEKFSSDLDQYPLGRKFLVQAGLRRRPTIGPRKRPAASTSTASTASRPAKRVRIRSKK"}, "[4]": {"target": "T4, HPV 16亚型抗原 (Human papillomavirus type 16, UniProt P03101 1-505)", "T4 construct": "Called only 'HPV 16 antigen'", "T4 sequence": "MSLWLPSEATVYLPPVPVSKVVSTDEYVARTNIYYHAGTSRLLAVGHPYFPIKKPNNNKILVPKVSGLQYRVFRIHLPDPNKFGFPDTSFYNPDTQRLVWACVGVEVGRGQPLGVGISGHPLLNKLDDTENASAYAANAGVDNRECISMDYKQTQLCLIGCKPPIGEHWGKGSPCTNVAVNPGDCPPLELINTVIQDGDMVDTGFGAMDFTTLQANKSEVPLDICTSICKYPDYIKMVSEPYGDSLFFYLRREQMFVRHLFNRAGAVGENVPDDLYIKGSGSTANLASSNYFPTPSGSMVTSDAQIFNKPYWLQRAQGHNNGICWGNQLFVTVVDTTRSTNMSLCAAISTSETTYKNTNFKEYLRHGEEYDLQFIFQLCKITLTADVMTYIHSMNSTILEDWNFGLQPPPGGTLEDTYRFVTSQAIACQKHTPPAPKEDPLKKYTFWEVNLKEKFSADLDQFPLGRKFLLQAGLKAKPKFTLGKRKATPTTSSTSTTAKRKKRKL"}, "[5]": {"target": "T5, HPV 33亚型抗原 (Human papillomavirus type 33, UniProt P06416 1-499)", "T5 construct": "Called only 'HPV 33 antigen'", "T5 sequence": "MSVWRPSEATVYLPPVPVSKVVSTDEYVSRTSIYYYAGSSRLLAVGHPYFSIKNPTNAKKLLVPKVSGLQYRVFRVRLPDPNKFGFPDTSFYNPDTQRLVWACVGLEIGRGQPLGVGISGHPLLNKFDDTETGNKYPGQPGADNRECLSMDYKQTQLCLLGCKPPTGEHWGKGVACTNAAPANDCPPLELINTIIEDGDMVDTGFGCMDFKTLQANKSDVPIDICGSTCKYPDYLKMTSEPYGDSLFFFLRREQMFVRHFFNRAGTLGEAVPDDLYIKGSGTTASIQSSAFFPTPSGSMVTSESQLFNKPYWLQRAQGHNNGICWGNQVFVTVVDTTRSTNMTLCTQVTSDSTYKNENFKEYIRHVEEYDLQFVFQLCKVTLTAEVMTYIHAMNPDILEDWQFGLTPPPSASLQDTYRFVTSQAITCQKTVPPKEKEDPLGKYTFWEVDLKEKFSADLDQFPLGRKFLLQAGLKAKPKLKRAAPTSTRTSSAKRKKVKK"}, "[6]": {"target": "T6, HPV11亚型抗原 (Human papillomavirus type 11, UniProt P04012 1-501)", "T6 construct": "Called only 'HPV11 antigen'", "T6 sequence": "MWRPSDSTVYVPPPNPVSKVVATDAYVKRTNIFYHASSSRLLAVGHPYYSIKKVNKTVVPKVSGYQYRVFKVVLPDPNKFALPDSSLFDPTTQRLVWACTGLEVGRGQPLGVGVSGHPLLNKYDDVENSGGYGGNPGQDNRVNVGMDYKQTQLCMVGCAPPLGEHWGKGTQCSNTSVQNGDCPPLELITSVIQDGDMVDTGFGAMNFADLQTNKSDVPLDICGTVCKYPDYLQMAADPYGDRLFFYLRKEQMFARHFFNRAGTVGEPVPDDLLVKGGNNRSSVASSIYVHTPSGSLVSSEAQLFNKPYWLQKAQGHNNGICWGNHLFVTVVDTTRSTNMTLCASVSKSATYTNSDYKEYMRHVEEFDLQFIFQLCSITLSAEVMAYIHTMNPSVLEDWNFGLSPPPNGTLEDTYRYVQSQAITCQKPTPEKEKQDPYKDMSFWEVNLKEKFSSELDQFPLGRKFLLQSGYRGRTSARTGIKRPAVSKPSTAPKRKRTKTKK"}},
  "data": [
    {"binder": "HPV31型单克隆抗体(7H9) (antibody, V domains shown, also called 7H9抗体; HPV31型(7H9)鼠单抗) VH: QIQLVQSGPELKKPGETVKISCKASGYTFTNYGMNWVKQAPGKGLKWMGWINTYTGEPTYADDFKGRFAFSLETSANTAYLQITNLKNEDMATYFCARRITMEYYYGLDCWGQGTSVTVSS VL: QAVVTQESALTTSPGETVTLTCRSSTGAVTTSNYANWVQEKPDHLFSGLIGGTNNRVPGVPARFSGSLIGDKAALTITGAQTEDEAIYFCALWYSNHWVFGGGTKLTVL", "values": [
      {"measurement": "binding result", "setting": "[1]", "result": "no binding (tested: 抗原1μg/ml包被; 杂交瘤细胞上清20倍稀释)"},
      {"measurement": "binding result", "setting": "[2]", "result": "no binding (tested: 抗原1μg/ml包被; 杂交瘤细胞上清20倍稀释)"},
      {"measurement": "binding result", "setting": "[3]", "result": "no binding (tested: 抗原1μg/ml包被; 杂交瘤细胞上清20倍稀释)"},
      {"measurement": "binding result", "setting": "[4]", "result": "no binding (tested: 抗原1μg/ml包被; 杂交瘤细胞上清20倍稀释)"},
      {"measurement": "binding result", "setting": "[5]", "result": "no binding (tested: 抗原1μg/ml包被; 杂交瘤细胞上清20倍稀释)"},
      {"measurement": "binding result", "setting": "[6]", "result": "no binding (tested: 抗原1μg/ml包被; 杂交瘤细胞上清20倍稀释)"}
    ]}
  ]
}
